# From the supplement of paper PMC10567573
# B1: RTP4 (parent)
# chain: TYWEHWTSQGQVRMRLFGQRCQKC
# B2: C1orf55 (parent)
# chain: FTSPDYQQQCHEMAERLEDSVLKG
# Variants of: B1
# Assay: protein stability index of a GFP-peptide fusion (GPS, HEK-293T) (PSI 1-6); higher = more stable
# Conditions: c terminus: a fixed tail appended
# 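Also: lentivirally expressed fusions sorted by FACS into six bins by GFP to DsRed ratio, PSI derived from sequencing read proportions per bin multiplied by bin number.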
row,Variant,protein stability index
1,W3D,2.88
2,W3T,3.21
3,W3G,1.63
4,W3I,1.69
5,W3N,2.98
6,W3A,2.07
7,W3Y,1.54
8,W3E,1.77
9,W3P,2.25
10,W3C,5.05
11,W3K,2.96
12,W3M,2.28
13,W3F,1.75
14,W3H,3.61
15,W3Q,2.51
16,W3R,1.73
17,Y2P,2.1
18,Y2T,2.46
19,Y2C,2.69
20,Y2N,2.49
21,Y2M,2.39
22,Y2K,2.19

row,Variant,protein stability index
1,Y2I,1.74
2,Y2F,1.32
3,Y2H,1.99
4,Y2E,2.98
5,Y2D,1.66
6,Y2G,3.25
7,Y2W,1.53
8,Y2A,2.35
9,E4I,1.77
10,E4H,1.71
11,E4N,1.1
12,E4K,3.32
13,E4M,2.86
14,E4P,1.49
15,E4Q,3.01
16,E4C,1.15
17,E4G,2.45
18,H5R,1.38
19,H5T,2.12
20,H5M,1.53
21,H5Q,2.43
22,H5A,2.43

row,Variant,protein stability index
1,H5Y,1.58
2,H5W,1.16
3,H5E,2.19
4,H5P,3.28
5,H5N,1.59
6,H5G,1.62
7,H5D,2.07
8,T1H,2.48
9,T1P,2.27
10,T1A,1.19
11,T1Q,2.15
12,T1W,2.35
13,T1Y,2.21
14,T1D,1.82
15,T1S,2.18
16,T1L,1.88
17,T1E,1.36
18,T1G,2.81
19,T1C,2.67
20,T1V,1.86

# Variants of: B2
# Assay: as above
# Conditions: c terminus: a fixed tail appended
row,Variant,protein stability index
1,L22W,2.21
2,L22S,2.76
3,L22C,2.62
4,L22R,2.71
5,L22E,2.1
6,L22D,2.48
7,P4F,2.6
8,P4R,2.8
9,P4Q,2.62
10,Q8T,2.6
11,Q8I,1.63
12,Q8E,3.44
13,Q8A,1.96
14,Q8V,2.47
15,Q8F,2.44
16,Q8C,1.64
17,S20H,1.75
18,S20A,1.95
19,S20I,2.26
20,V21L,2.17
21,V21E,2.87
22,V21N,2.94
23,G24I,1.5
24,G24L,1.87
25,M13I,1.97
26,M13Q,2.24

row,Variant,protein stability index
1,M13E,2.62
2,K23P,2.35
3,K23L,2.37
4,K23C,1.79
5,K23A,1.4
6,K23I,2.1
7,K23V,3.3
8,A14Q,2.45
9,A14S,2
10,A14F,2.21
11,A14K,2.52
12,E18F,1.65
13,E18Q,2.05
14,E18V,1.4
15,E12Q,2.23
16,E12I,2.98
17,E12F,3.35
18,E12P,1.5
19,E12M,1.89
20,S3F,3.06
21,S3M,2.96
22,S3P,3.61
23,S3A,2.89
24,L17C,2.25
25,L17W,1.98
26,L17S,2.47

row,Variant,protein stability index
1,L17E,2.97
2,Q9V,2.21
3,Q9E,3.26
4,Q9N,1.52
5,Q7L,2.13
6,Q7K,2.07
7,D5M,2.12
8,D5I,2.15
9,D5F,2.09
10,D5E,2.41
11,F1G,4.87
12,F1H,4.59
13,F1S,4.31
14,F1C,4.43
15,F1D,4.84
16,C10K,3.46
17,C10R,3.69
18,C10M,2.41
19,T2P,3.77
20,T2Q,2.87
21,T2H,2.25
22,Y6V,4.37
23,Y6E,5.43
24,Y6N,4.27
25,D19I,2.86
26,D19M,2.08

row,Variant,protein stability index
1,D19W,2.23
2,D19Y,1.91
3,D19A,1.83
4,D19C,2.04
5,D19S,2.87
6,E15I,1.86
7,E15F,1.78
8,E15V,2.42
9,E15A,2.8
10,E15D,1.82
11,E15M,1.8
12,H11R,2.45
13,H11C,1.8
14,H11D,2.83
15,H11E,2.95
16,H11S,2.13
17,H11V,2.52
18,H11Q,2.87
19,H11L,1.87
20,H11F,2.26
21,H11I,2.61
22,H11Y,1.87
23,R16T,2.38
24,R16Q,2.4
25,R16F,2.29
